Source: paper PMC11922929, “Functional recoding of Chlamydomonas reinhardtii thioredoxin type-h into photosynthetic type-f by switching selectivity determinants” (Frontiers in Plant Science, 2025)
Values belong to the molecule of their own block, whether it stands above or below them.

How the values were obtained:
[1] = molecular target: Chlamydomonas reinhardtii fructose-1,6-bisphosphatase (CrFBPase) (Chlamydomonas reinhardtii)
[2] = molecular target: T1, CrFBPase (Chlamydomonas reinhardtii, UniProt A8IKQ0); experiment: coupled spectrophotometric assay of FBP hydrolysis (NADP+ reduction at […] nm); assay type: biochemical; details: 0.6 mM FBP, 10 mM MgCl2, 30 mM Tris pH 7.9, 20 °C; FBPase pre-incubated with 1 mM DTT, with or without 50 µM thioredoxin
T1 construct: gene CHLRE_12g510650v5; recombinant, N-terminal poly-histidine tag, pET plasmid, E. coli BL21(DE3), Ni-NTA purified
T1 sequence (A8IKQ0 29-415): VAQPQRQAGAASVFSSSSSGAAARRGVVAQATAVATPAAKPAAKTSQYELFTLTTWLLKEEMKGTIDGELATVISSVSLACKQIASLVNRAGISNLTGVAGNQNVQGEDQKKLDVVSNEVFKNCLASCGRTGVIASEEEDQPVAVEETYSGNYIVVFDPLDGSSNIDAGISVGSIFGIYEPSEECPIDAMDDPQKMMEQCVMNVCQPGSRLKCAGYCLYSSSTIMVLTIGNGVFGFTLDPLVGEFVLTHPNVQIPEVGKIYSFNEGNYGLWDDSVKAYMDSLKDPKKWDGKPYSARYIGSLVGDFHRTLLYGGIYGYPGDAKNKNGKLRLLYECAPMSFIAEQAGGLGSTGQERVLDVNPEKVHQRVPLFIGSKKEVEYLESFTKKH

Molecule: Chlamydomonas reinhardtii thioredoxin f2 (CrTRXf2) (enzyme)
FBPase activity (coupled spectrophotometric assay, NADP+ reduction at 340 nm, initial velocity) after 5 min pre-incubation with 1 mM DTT and 50 µM TRXf2, 20°C, n=4 [1]: 106 ΔAbs/min
fold increase of FBPase activity after pre-incubation with 1 mM DTT and 50 µM TRXf2 [1]: 6 fold

Molecule: O=P(O)(O)OC[C@H]1OC(O)(COP(=O)(O)O)[C@@H](O)[C@@H]1O (stereo partly shown) [FBP]
coupled spectrophotometric assay of FBP hydrolysis (NADP+ reduction at 340 nm) [2]: The activity of FBPase was determined in the direction of FBP hydrolysis

The remaining lines, values ahead:

FBPase activity (coupled spectrophotometric assay, NADP+ reduction at 340 nm, initial velocity) after 5 min pre-incubation with 1 mM DTT and 50 µM TRXχ1, 20°C, n=4 [1]: 172 ΔAbs/min
fold increase of FBPase activity after pre-incubation with 1 mM DTT and 50 µM TRXχ1 [1]: 9.8 fold
Molecule: TRXχ1 (chimera 1; TRXh1-K49,K69,K70,K78,K99) (from UniProt P80028 1-113) (enzyme)

FBPase activity (coupled spectrophotometric assay, NADP+ reduction at 340 nm, initial velocity) after 5 min pre-incubation with 1 mM DTT and 50 µM TRXh1, 20°C, n=4 [1]: 59 ΔAbs/min
fold increase of FBPase activity after pre-incubation with 1 mM DTT and 50 µM TRXh1 [1]: 3.4 fold
B1: Chlamydomonas reinhardtii thioredoxin h1 (CrTRXh1) (enzyme)
chain: MGGSVIVIDSKAAWDAQLAKGKEEHKPIVVDFTATWCGPCKMIAPLFETLSNDYAGKVIFLKVDVDAVAAVAEAAGITAMPTFHVYKDGVKADDLVGASQDKLKALVAKHAAA
